Data published in patent US11485991B2, “Multifunctional recombinant nucleotide dependent glycosyltransferase protein and its method of glycosylation thereof” (Council of Scientific & Industrial Research, priority 2016, dated 2022).
Changes are numbered by the printed parent chain. Names and notes keep the numbering of the source. Ends that are not written are not given here.

B1: GT-CTH D131A (protein)
chain: MGYSENFIANDWFNVEVFNKNKYTLTNQENKDVTELWLQILKGLKFPNELKETVSYSKNLKELSLKTHAEVSVCIIAKNEQDSIRKCINSIYEFSDEIIFIDTGSIDSTKKIVKEIASEKVKIFDYTWQDAFSDARNYSIQKASKEWILIIDADEYVSSDELIKLRLLIDMLDRFKFKDSLRVSCAIYQLDNVITHGQSRLFRNNNKIKYYGLIHEELRNNKGLDPIFNVESEITFFHDGYKEILRKEKCERNIRLLAKMLEKEPDNVRWAYLYCRDSFSINSNIDFEKILLPFLIKNMDESISCENILLTNYTHLILFLITKKYIIDGKSSLASKCIEVLEKMLPNSSDVTFYKFLNKQHSLYEQQFEFLKEVIQFRKNNEYDQYSQIGCNLLHYDLLISGLLFDVKSYDYSYQYFLKLDLANYFSELEIPDEYKMLINKYRENESLEHHHHHH
B2: GT-CTH F132A (protein)
chain: B1 chain with A131D, F132A
B3: GT-CTH D152A (protein)
chain: B1 chain with A131D, D152A
B4: GT-CTH R136A (protein)
chain: B1 chain with A131D, R136A
B5: GT-CTH D102A (protein)
chain: B1 chain with D102A, A131D
B6: GT-CTH W147A (protein)
chain: B1 chain with A131D, W147A
B7: GT-CTH E97A (protein)
chain: B1 chain with E97A, A131D
B8: GT-CTH D154A (protein)
chain: B1 chain with A131D, D154A
B9: GT-CTH D130A (protein)
chain: B1 chain with D130A, A131D
B10: GT-CTH A153R (protein)
chain: B1 chain with A131D, A153R
B11: GT-CTH D131A, F132D (protein)
chain: B1 chain with F132D
B12: GT-CTH Y241A (protein)
chain: B1 chain with A131D, Y241A
B13: GT-CTH D130A, D131A (protein)
chain: B1 chain with D130A
B14: GT-CTH C87A (protein)
chain: B1 chain with C87A, A131D

What follows are molecules tested on synthetic acceptor substrates (assay: In vitro glycosyltransferase (GT) assay of GT-CTH mutants with MS detection of glycosylated product). Conditions: purified mutant of GT-CTH, acceptor substrate and UDP-glucose, MS analysis.
Type: biochemical
Protocol: Purified recombinant nucleotide dependent glycosyltransferase (0.2 μM) is incubated with synthetic acceptor substrates (5 μM) and 100 μM UDP-glucose in a reaction buffer containing 20 mM HEPES, pH 7.5, 50 mM NaCl, 1 mM TCEP and 1 mM MgCl2. The reaction is incubated at 25° C. for 12 h. Each assay reaction was accompanied by control reaction (without enzyme). The reactions are quenched with 5% TFA to pH 2, desalted using ZipTip C18, and vacuum dried and analyzed using mass spectrometry.
Mass spectrometry has been used to detect glycosylation in product of glycosylation assay reactions using Matrix Assisted Laser Desorption Ionization Time of flight mass spectrometry (MALDI-TOF MS) and Liquid chromatography electrospray ionization mass spectrometry (LC/ESI-MS) techniques. MALDI-TOF MS has carried out at AB Sciex 5800 MALDI TOF/TOF and LC/ESI-MS has carried out at 6550 iFunnel QTOF LC/MS (Agilent Technologies) using Zorbax Eclipse plus C8 column (3.0×150 mm, 5μ) of Agilent technologies. For MALDI-TOF analysis and LC-ESI/MS analysis, vacuum dried samples are reconstituted in water and 0.1% formic acid respectively.
Various mutations are introduced in recombinant nucleotide dependent glycosyltransferase (GT-CTH) using side directed mutagenesis (Quick change lightning Mutagenesis kit, Agilent) using GTpET28a plasmid as template. The sequence of mutants is verified through DNA sequencing. The mutated recombinant plasmids are transformed into E. coli Lemo21(DE3) and E. coli BL21(DE3) cells for expression. The over expression, purification and functional analysis of mutants of recombinant nucleotide dependent glycosyltransferase proteins are performed using the above mentioned methods. The list of mutants of recombinant nucleotide dependent glycosyltransferase, created in accordance with present invention identifies D102, R136, W147, D152, A153, D154 residues critical for activity of recombinant nucleotide dependent glycosyltransferase (GT-CTH). Replacement of these residues to alanine results into abolishment of the glycosyltransferase activity.

Molecule | In vitro glycosyltransferase activity status
B1 | Active
B2 | Active
B3 | Inactive
B4 | Inactive
B5 | Inactive
B6 | Inactive
B7 | Active
B8 | Inactive
B9 | Active
B10 | Inactive
B11 | Inactive
B12 | Active
B13 | Inactive
B14 | Active

The molecules below were run on Listeria monocytogenes EGD-e (assay: Agar well diffusion assay of antimicrobial activity of enterocin 96 glycoforms (zone of growth inhibition)). Conditions: 50 μM glycoform in agar wells, BHI agar seeded with Listeria monocytogenes EGD-e, 37° C. for 12 h.
Type: cell-based
Protocol: The di-glycosylated, mono-glycosylated and un-glycosylated glycoforms corresponding to enterocin 96 (known bacteriocin) peptide sequence are prepared under controlled GT assay conditions and purified using RP-HPLC based method. The lyophilized product glycoforms including glyco-diversified forms are resuspended in 50 mM Tris-Cl, pH 7.5. The culture of Listeria monocytogenes EGD-e is grown in BHI media at 37° C. for 7-8 h. Agar plates are prepared by mixing 25 μL of saturated culture (A600≈1.5) and 100 mL of molten BHI agar (cooled to 40-45° C.) and pouring the mixture into sterile petri plates. The seeded agar plates are allowed to solidify for 30-45 min and agar wells are prepared using a sterile cork borer. 50 μM of all glycoforms including glyco-diversified forms are poured in to the wells and plates are incubated at 37° C. for 12 h. The antimicrobial activity is determined by the presence and absence of zone of growth inhibition.

Molecule | antimicrobial activity (presence and absence of zone of growth inhibition)
di-glucosylated product: Enterocin 96 peptide (SEQ ID NO: 4) carrying a glucose-glucose disaccharide glycan, made with the recombinant glycosyltransferase (MSKRDCNLMKACCAGQAVTYAIHSLLNRLGGDSSDPAGCNDIVRKYCK; cysteine pairing not given here; also: glucose-glucose disaccharide glycan, site not given here) | more antimicrobial activity than mono-glucosylated product
